From patent US7588931B2, “High arachidonic acid producing strains of Yarrowia lipolytica” (E. I. du Pont de Nemours and Company, priority 2004, dated 2009)
Entries after “also recorded” stand apart in the source; their conditions may differ.

B1: FBAIN: fructose-bisphosphate aldolase + intron promoter, SEQ ID NO:162 (nucleic acid, listed as Yarrowia lipolytica)
DNA: AAATTGCCCCGGAGAAGACGGCCAGGCCGCCTAGATGACAAATTCAACAACTCACAGCTGACTTTCTGCCATTGCCACTAGGGGGGGGCCTTTTTATATGGCCAAGCCAAGCTCTCCACGTCGGTTGGGCTGCACCCAACAATAAATGGGTAGGGTTGCACCAACAAAGGGATGGGATGGGGGGTAGAAGATACGAGGATAACGGGGCTCAATGGCACAAATAAGAACGAATACTGCCATTAAGACTCGTGATCCAGCGACTGACACCATTGCATCATCTAAGGGCCTCAAAACTACCTCGGAACTGCTGCGCTGATCTGGACACCACAGAGGTTCCGAGCACTTTAGGTTGCACCAAATGTCCCACCAGGTGCAGGCAGAAAACGCTGGAACAGCGTGTACAGTTTGTCTTAACAAAAAGTGAGGGCGCTGAGGTCGAGCAGGGTGGTGTGACTTGTTATAGCCTTTAGAGCTGCGAAAGCGCGTATGGATTTGGCTCATCAGGCCAGATTGAGGGTCTGTGGACACATGTCATGTTAGTGTACTTCAATCGCCCCCTGGATATAGCCCCGACAATAGGCCGTGGCCTCATTTTTTTGCCTTCCGCACATTTCCATTGCTCGGTACCCACACCTTGCTTCTCCTGCACTTGCCAACCTTAATACTGGTTTACATTGACCAACATCTTACAAGCGGGGGGCTTGTCTAGGGTATATATAAACAGTGGCTCTCCCAATCGGTTGCCAGTCTCTTTTTTCCTTTCTTTCCCCACAGATTCGAAATCTAAACTACACATCACACAATGCCTGTTACTGACGTCCTTAAGCGAAAGTCCGGTGTCATCGTCGGCGACGATGTCCGAGCCGTGAGTATCCACGACAAGATCAGTGTCGAGACGACGCGTTTTGTGTAATGACACAATCCGAAAGTCGCTAGCAACACACACTCTCTACACAAACTAACCCAGCTCTCC
modifications: misc_feature: Promoter FBAIN
B2: FBA: Y. lipolytica fructose-bisphosphate aldolase promoter, SEQ ID NO:161 (nucleic acid, listed as Yarrowia lipolytica)
DNA: TAAACAGTGTACGCAGTACTATAGAGGAACAATTGCCCCGGAGAAGACGGCCAGGCCGCCTAGATGACAAATTCAACAACTCACAGCTGACTTTCTGCCATTGCCACTAGGGGGGGCCTTTTTATATGGCCAAGCCAAGCTCTCCACGTCGGTTGGGCTGCACCCAACAATAAATGGGTAGGGTTGCACCAACAAAGGGATGGGATGGGGGGTAGAAGATACGAGGATAACGGGGCTCAATGGCACAAATAAGAACGAATACTGCCATTAAGACTCGTGATCCAGCGACTGACACCATTGCATCATCTAAGGGCCTCAAAACTACCTCGGAACTGCTGCGCTGATCTGGACACCACAGAGGTTCCGAGCACTTTAGGTTGCACCAAATGTCCCACCAGGTGCAGGCAGAAAACGCTGGAACAGCGTGTACAGTTTGTCTTAACAAAAAGTGAGGGCGCTGAGGTCGAGCAGGGTGGTGTGACTTGTTATAGCCTTTAGAGCTGCGAAAGCGCGTATGGATTTGGCTCATCAGGCCAGATTGAGGGTCTGTGGACACATGTCATGTTAGTGTACTTCAATCGCCCCCTGGATATAGCCCCGACAATAGGCCGTGGCCTCATTTTTTTGCCTTCCGCACATTTCCATTGCTCGGTACCCACACCTTGCTTCTCCTGCACTTGCCAACCTTAATACTGGTTTACATTGACCAACATCTTACAAGCGGGGGGCTTGTCTAGGGTATATATAAACAGTGGCTCTCCCAATCGGTTGCCAGTCTCTTTTTTCCTTTCTTTCCCCACAGATTCGAAATCTAAACTACACATCACACAATGCCTGTTACTGACGTCCTTAAGCGAAAGTCCGGTGTCATCGTCGGCGACGATGTCCGAGCCGTGAGTATCCACGACAAGATCAGTGTCGAGACGACGCGTTTTGTGTAATGACACAATCCGAAAGTCGCTAGCAACACACACTCTCTACACAAACTAACCCAGCTCTCC
modifications: misc_feature: Promoter FBA

Assays:
[1] = test system: β-glucuronidase (GUS) reporter; experiment: Comparative analysis of promoters by histochemical analysis of GUS expression; format: cell-based, Yarrowia lipolytica; settings: ATCC #76982 strains, MM, FIG. 5B
Method: Comparative studies investigating the promoter activities of the TEF, GPD, GPDIN, GPM, GPAT, FBA, FBAIN and YAT1 promoters were performed, by synthesizing constructs comprising each promoter and the E. coli gene encoding β-glucuronidase (GUS) as a reporter gene (Jefferson, R. A. Nature. 14(342):837-838 (1989)). Then, GUS activity was measured by histochemical and fluorometric assays (Jefferson, R. A. Plant Mol. Biol. Reporter 5:387-405 (1987)) and/or by using Real Time PCR for mRNA quantitation.
Yarrowia lipolytica ATCC #76982 strains containing plasmids pY5-30, pYZGDG, pYZGMG, pDMW212 and pDMW214 were grown from single colonies in 3 mL MM at 30° C. to an OD600˜1.0. Then, 100 μl of cells were collected by centrifugation, resuspended in 100 μl of histochemical staining buffer, and incubated at 30° C. Staining buffer was prepared by dissolving 5 mg of 5-bromo-4-chloro-3-indolyl glucuronide (X-Gluc) in 50 μl dimethyl formamide, followed by the addition of 5 mL 50 mM NaPO4, pH 7.0.
In a separate experiment, Y. lipolytica Y2034 strains containing plasmids pY5-30, pYGPAT-GUS, pYAT-GUS and pDMW214 were grown from single colonies in 5 mL SD media at 30° C. for 24 hrs to an OD600˜8.0. Then, 1 mL of cells were collected by centrifugation. The remaining cultures were centrifuged and washed 2× with HGM, resuspended in 5 mL each of HGM and allowed to grow at 30° C. further. After 24 and 120 hrs, ˜0.25 mL of each culture were centrifuged to collect the cells. Cell samples were resuspended individually in 100 μl of histochemical staining buffer (supra). Zymolase 20T (5 μl of 1 mg/mL; ICN Biomedicals, Costa Mesa, Calif.) was added to each, and the mixture incubated at 30° C. […]

GUS mRNA = experiment: Comparative analysis of promoters by quantitative (Real Time) PCR of GUS mRNA; format: cell-based, Yarrowia lipolytica; settings: for transcription activity relative to the TEF promoter: after 24 hrs in HGM, ATCC #76982 strains
Method: The transcriptional activities of the TEF, GPD, GPDIN, FBA and FBAIN promoters were determined in Y. lipolytica containing the pY5-30, PYZGDG, pDMW222, pDMW212 and pDMW214 constructs by quantitative PCR analyses. This required isolation of RNA and real time RT-PCR.
More specifically, Y. lipolytica ATCC #76982 strains containing pY5-30, PYZGDG, pDMW222, pDMW212 and pDMW214 were grown from single colonies in 6 mL of MM in 25 mL Erlenmeyer flasks for 16 hrs at 30° C. Each of the 6 mL starter cultures was then added to individual 500 mL flasks containing 140 mL HGM and incubated at 30° C. for 4 days. In each interval of 24 hrs, 1 mL of each culture was removed from each flask to measure the optical density, 27 mL was removed and used for a fluorometric GUS assay (as described above), and two aliquots of 1.5 mL were removed for RNA isolation. The culture for RNA isolation was centrifuged to produce a cell pellet.
The RNA was isolated from Yarrowia strains according to the modified Qiagen RNeasy mini protocol (Qiagen, San Diego, Calif.). Briefly, at each time point for each sample, 340 μL of Qiagen's buffer RLT was used to resuspend each of the two cell pellets. The buffer RLT/cell suspension mixture from each of the two tubes was combined in a bead beating tube (Bio101, San Diego, Calif.). About 500 μL of […] glass beads was added to the tube and the cells were disrupted by bead beating 2 min at setting 5 (BioPulverizer, Bio101 Company, San Diego, Calif.). The disrupted cells were then pelleted by centrifugation at 14,000 rpm for 1 min and 350 μl of the supernatent was transferred to a new microcentrifuge tube. Ethanol (350 μL of 70%) was added to each homogenized lysate. After gentle mixing, the entire sample was added to a RNeasy mini column in a 2 mL collection tube. The sample was centrifuged for 15 sec at 10,000 rpm. Buffer RW1 (350 μL) was added to the RNeasy mini column and the column was centrifuged for 15 sec at 10,000 rpm to wash the cells. The eluate was discarded. Qiagen's DNasel stock solution (10 μL) was added to 70 μl of Buffer RDD and gently mixed. This entire DNase solution was added to the RNeasy mini column and incubated at room temperature for 15 min. After the incubation step, 350 μL of Buffer RW1 was added to the mini column and the column was centrifuged for 15 sec at 10,000 rpm. The column was washed twice with 700 μL […]. RNase-free water (50 μL) was added to the column. The column was centrifuged for 1 min at 10,000 rpm to elute the RNA.
A two-step RT-PCR protocol was used, wherein total Yarrowia RNA was first converted to cDNA and then cDNA was analyzed using Real Time PCR. The conversion to cDNA was performed using Applied Biosystems' High Capacity cDNA Archive Kit (PN#4322171; Foster City, Calif.) and Molecular Biology Grade water from MediaTech, Inc. (PN# 46-000-Con; Holly Hill, Fla.). Total RNA from Yarrowia (100 ng) was converted to cDNA by combining it with 10 μl of RT buffer, 4 μl of 25×dNTPs, 10 μl 10× Random Hexamer primers, 5 μl Multiscribe Reverse Transcriptase and 0.005 μl RNase Inhibitor, and brought to a total reaction volume of 100 μl with water. The reactions were incubated in a thermocycler for 10 min at 25° C. followed by 2 hrs at 37° C. The cDNA was stored at −20° C. prior to Real Time analysis.
Real Time analysis was performed using the SYBR Green PCR Master Mix from Applied Biosystems (PN# 4309155). The Reverse Transcription reaction (2 μl) was added to 10 μl of 2×SYBR PCR Mix, 0.2 μl of 100 μM Forward and Reverse primers for either URA (i.e., primers YL-URA-16F and YL-URA-78R [SEQ ID NOs:183 and 184]) or GUS (i.e., primers GUS-767F and GUS-891R [SEQ ID NO:185 and 186]) and 7.2 μl water. The reactions were thermocycled for 10 min at 95° C. followed by 40 cycles of 95° C. for 5 sec and 60° C. for 1 min in an ABI 7900 Sequence Detection System instrument. Real time fluorescence data was collected during the 60° C. extension during each cycle. […]

Molecule | promoter activity by histochemical staining [1] | transcription activity relative to the TEF promoter (GUS mRNA) | transcriptional activity relative to the TEF promoter (GUS mRNA; final day of the 4 day experiment in HGM)
B1 | active; also recorded: strongest promoter activity | ~6 times | about 3 times
B2 | active; also recorded: much stronger than all the other promoters | about 3.3 times | –
